{
  "source": "patent US10406204B2",
  "about": "“Multimeric antimicrobial peptide complex which is displayed on cell surface” (KOREA ADVANCED INSTITUTE OF SCIENCE AND TECHNOLOGY, priority 2010, dated 2019)",
  "molecules": {"B1": {"name": "LH3: trimer of antimicrobial peptide Hinge2L linked to cell surface anchoring motif Lpp-OmpA, displayed on E. coli BL21 (DE3) (protein)", "chain": "MKATKLVLGNNNGPTHENQLGAGAFGGYQVNPYVGFEMGYDWLGRMPYKGSVENGAYKAQGVQLTAKLGYPITDDLDIYTRLGGMVWRADTKSNVYGKNHDTGVSPVFAGGVEYAITPEIATRGRLRVVRQWPIGRVVRRVVRRVVRLRVVRQWPIGRVVRRVVRRVVRLRVVRQWPIGRVVRRVVRRVVRL", "modifications": "displayed on E. coli BL21(DE3); DNA sequence of Lpp-OmpA-Hinge2L3"}},
  "experiment_in_all_cases": "Antimicrobial activity of pepsin-treated E. coli displaying multimeric antimicrobial peptide complex",
  "assay_type_in_all_cases": "cell-based",
  "conditions_in_all_cases": "pepsin-digested in SGF 30 minutes; E. coli BL21 (DE3) = 0%, synthesized Hinge2L = 100%; OD595",
  "key": {"[1]": {"tested_on": "gram-negative Escherichia coli", "experimental": "(§1) The antimicrobial effect of the E. coli strain, constructed in Example 4 and displaying the multimeric antimicrobial peptide complex on the cell surface, was measured. Specifically, the transformed E. coli BL21 (DE3) was cultured in 100 ml of LB medium, and when the culture medium reached an OD600 of 0.5-0.6, 0.2 mM IPTG was added thereto to induce the expression of the multimeric antimicrobial peptide complex linked to the cell surface anchoring motif. 4 hours after the induction of the expression, the medium was removed, and the cells were washed twice with NAPB (sodium phosphate buffer), and then resuspended in the same buffer. All the E. coli samples were adjusted to a cell number of 1×10^10 cfu/ml. Then, pepsin was dissolved in simulated gastric fluid (SGF) (0.084 N HCl, 35 mM NaCl, pH 1.2 or 2.0), and the E. coli cells were treated with the pepsin solution and incubated for 30 minutes. After the incubation, in order to deactivate pepsin and neutralize the pH, the same concentration of NaOH aqueous solution as that of the simulated gastric fluid was added to the cells, and the cell solution was centrifuged to remove cell debris other than the monomeric antimicrobial peptide digested by pepsin.\n(§2) The antimicrobial activities of the pepsin-digested monomeric antimicrobial peptide against gram-positive Staphylococus aureus, gram-negative Escherichia coli and the yeast Saccharomyces cerevisiae were measured.\n(§3) Each of the microbial strains was collected in the exponential growth phase during the culture, washed twice with NAPB, and then resuspended in the same buffer. The number of the microbial cells was adjusted to 1×10^5 cfu/ml. 10 μl of an aqueous solution containing each microbial strain and the pepsin-digested monomeric antimicrobial peptide was dispensed into each well of a 96-well plate, mixed well and incubated at 37° C. for 3 hours. After 3 hours, 2×TSB (Trypticase Soy Broth) medium was added to the cells which were then incubated at 37° C. for 12 hours, after which the absorbance at OD595 was measured."}, "[2]": {"tested_on": "gram-positive Staphylococus aureus", "experimental": "as §1, §2, §3"}, "[3]": {"tested_on": "yeast Saccharomyces cerevisiae", "experimental": "as §1, §2, §3"}},
  "data": [
    {"molecule": "B1", "values": [
      {"measurement": "antimicrobial activity", "setting": "[1]", "value": 30, "unit": "%"},
      {"measurement": "antimicrobial activity", "setting": "[2]", "value": 17.95, "unit": "%"},
      {"measurement": "antimicrobial activity", "setting": "[3]", "value": 33.17, "unit": "%"}
    ]}
  ]
}
